Test results reported in paper PMC3950707.

Assays:
[1] = test system: Gal4(1-147) (Saccharomyces cerevisiae); experiment: single-molecule FRET (smTIRF), koff/kon; conditions: aminoC6 at 5' end; smTIRF and PIFE on DNA: 10 mM Tris-HCl pH 8.0, 130 mM NaCl, 10% glycerol, 0.005% Tween20, 1% BME (0.1 mg/ml BSA in smTIRF and LexA PIFE); nucleosome smTIRF and …
[2] = test system: LexA; experiment: ensemble PIFE; conditions: 0.2 nM DNA, non-cooperative fit; aminoC6 at 5' end; aminoC6dT in reverse primer; smTIRF and PIFE on DNA: 10 mM Tris-HCl pH 8.0, 130 mM NaCl, 10% glycerol, 0.005% Tween20, 1% BME (0.1 mg/ml BSA in smTIRF and LexA PIFE); nucleosome smTIRF and …
[3] = test system: LexA; experiment: single-molecule PIFE (smTIRF), koff/kon; conditions: aminoC6 at 5' end; aminoC6dT in reverse primer; smTIRF and PIFE on DNA: 10 mM Tris-HCl pH 8.0, 130 mM NaCl, 10% glycerol, 0.005% Tween20, 1% BME (0.1 mg/ml BSA in smTIRF and LexA PIFE); nucleosome smTIRF and …
[4] = test system: LexA; experiment: single-molecule FRET (smTIRF), koff/kon; conditions: smTIRF and PIFE on DNA: 10 mM Tris-HCl pH 8.0, 130 mM NaCl, 10% glycerol, 0.005% Tween20, 1% BME (0.1 mg/ml BSA in smTIRF and LexA PIFE), nucleosome smTIRF and …
[5] = test system: Gal4(1-147) (Saccharomyces cerevisiae); experiment: ensemble PIFE; conditions: 100 pM DNA (titration-limited), Hill 1.5; legend error 5; internal aminoC6dT in both primers; smTIRF and PIFE on DNA: 10 mM Tris-HCl pH 8.0, 130 mM NaCl, 10% glycerol, 0.005% Tween20, 1% BME (0.1 mg/ml BSA in smTIRF and LexA PIFE); nucleosome smTIRF and …
[6] = test system: Gal4(1-147) (Saccharomyces cerevisiae); experiment: single-molecule PIFE intensity histograms (smTIRF); conditions: Hill 2; Fig 4 legend gives 5 +/- 1; koff << 5e-4 s-1; internal aminoC6dT in both primers; smTIRF and PIFE on DNA: 10 mM Tris-HCl pH 8.0, 130 mM NaCl, 10% glycerol, 0.005% Tween20, 1% BME (0.1 mg/ml BSA in smTIRF and LexA PIFE); nucleosome smTIRF and …
[7] = test system: Gal4(1-147) (Saccharomyces cerevisiae); experiment: EMSA; conditions: 200 pM DNA (titration-limited), Hill 1.5; legend 240 +/- 10; poly-dIdC; internal aminoC6dT in both primers; smTIRF and PIFE on DNA: 10 mM Tris-HCl pH 8.0, 130 mM NaCl, 10% glycerol, 0.005% Tween20, 1% BME (0.1 mg/ml BSA in smTIRF and LexA PIFE); nucleosome smTIRF and …

Question: nucDNA-Gal4 mononucleosome was tested. Which Kd [1] did it give?
Answer: Its Kd is 0.051 nM.

Question: How did the Kd [2] turn out when dsDNA-LexA was run?
Answer: The Kd was 0.13 nM.

Question: What about the Kd [3] of the same substance?
Answer: The Kd was 0.07 nM.

Question: Which Kd ([4]; aminoC6 at 5' end) does the source give for nucDNA-LexA mononucleosome here?
Answer: Its Kd is 40000 nM.

Question: dsDNA-Gal4 was tested. Which K half [5] did it give?
Answer: The K half was 0.042 nM.

Question: And the K half [6]?
Answer: Its K half is 5 pM.

Question: What about the K half [7] of the same substance?
Answer: Its K half is 0.242 nM.

Question: For LexA dinucleosome array, which Kd ([4]; internal aminoC6dT) is on record?
Answer: The Kd was 40000 nM.
